Residue numbers refer to the chain shown, from its start.
B1: 1′DelE2 PR4 (designed binder)
chain: EVVAATPTSLLISWRHPHFPTRYYRITYGETGGNSPVQEFTVPLQPPTATISGLKPGVDYTITVYAVTVGQNDHELLTPISINYRT
B2: 1′Del G10 PR4 (designed binder)
chain: B1 chain with V69M, G70A, D73G, E75K, L77M
B3: 1′DelA2 PR4 (designed binder)
chain: B1 chain with G70A, D73G, E75Q, L77F
B4: 2′Del B2 PR4 (designed binder)
chain: B1 chain with V69T, Q71W, D73G, H74N, L77F
B5: 2′Del B4 PR4 (designed binder)
chain: B1 chain with V69S, Q71H, D73G, L76V, L77M
B6: 2′Del C1 PR4 (designed binder)
chain: B1 chain with V69A, Q71L, N72D, D73E, T78I
B7: 2′Del C6 PR4 (designed binder)
chain: B1 chain with V69M, Q71F, N72M, D73A, L77M, T78V
B8: 1′DelH5 PR4 (designed binder)
chain: B1 chain with G70A, H74R, L77F
B9: 2′Del A11 PR4 (designed binder)
chain: B1 chain with V69E, G70D, Q71I, N72R, D73V, H74L, E75W, L77N, P79T
B10: 1′DelF3 PR4 (designed binder)
chain: B1 chain with V69M, G70A, E75K, L77F
B11: 1′DelA1 PR4 (designed binder)
chain: B1 chain with G70A
B12: 1′DelH12 PR4 (designed binder)
chain: B1 chain with G70A, D73E, H74R, L77F
B13: 1′DelD2 PR4 (designed binder)
chain: B1 chain with G70A, Q71K
B14: 1′DelE7 PR4 (designed binder)
chain: B1 chain with G70A, D73G, L77F
B15: 1′DelH10 PR4 (designed binder)
chain: B1 chain with V69F, G70A
B16: 2′Del C5 PR4 (designed binder)
chain: B1 chain with V69P, Q71H, L77M, T78V
B17: 2′Del B3 PR4 (designed binder)
chain: B1 chain with V69D, G70A, Q71P, D73G, H74R, L77M, T78V
B18: 1′DelD1 PR4 (designed binder)
chain: B1 chain with G70T
B19: 1′DelD5 PR4 (designed binder)
chain: B1 chain with D73H, L77F
B20: 2′Del B5 PR4 (designed binder)
chain: B1 chain with V69A, Q71R, N72H, L77I, T78I
B21: 1′DelE6 PR4 (designed binder)
chain: B1 chain with V69L, G70A, H74R
B22: 2′Del A2 PR4 (designed binder)
chain: B1 chain with V69G, Q71R, D73G, E75T

Molecular target: T1, human vascular endothelial growth factor receptor-2 Fc chimera (KDR-Fc) (human, UniProt P35968 20-764)
T1 construct: range 1-764; also called human VEGFR-2; not shown: human IgG1 Fc
T1 sequence (P35968 20-764 limits assumed, change not shown, form in doubt): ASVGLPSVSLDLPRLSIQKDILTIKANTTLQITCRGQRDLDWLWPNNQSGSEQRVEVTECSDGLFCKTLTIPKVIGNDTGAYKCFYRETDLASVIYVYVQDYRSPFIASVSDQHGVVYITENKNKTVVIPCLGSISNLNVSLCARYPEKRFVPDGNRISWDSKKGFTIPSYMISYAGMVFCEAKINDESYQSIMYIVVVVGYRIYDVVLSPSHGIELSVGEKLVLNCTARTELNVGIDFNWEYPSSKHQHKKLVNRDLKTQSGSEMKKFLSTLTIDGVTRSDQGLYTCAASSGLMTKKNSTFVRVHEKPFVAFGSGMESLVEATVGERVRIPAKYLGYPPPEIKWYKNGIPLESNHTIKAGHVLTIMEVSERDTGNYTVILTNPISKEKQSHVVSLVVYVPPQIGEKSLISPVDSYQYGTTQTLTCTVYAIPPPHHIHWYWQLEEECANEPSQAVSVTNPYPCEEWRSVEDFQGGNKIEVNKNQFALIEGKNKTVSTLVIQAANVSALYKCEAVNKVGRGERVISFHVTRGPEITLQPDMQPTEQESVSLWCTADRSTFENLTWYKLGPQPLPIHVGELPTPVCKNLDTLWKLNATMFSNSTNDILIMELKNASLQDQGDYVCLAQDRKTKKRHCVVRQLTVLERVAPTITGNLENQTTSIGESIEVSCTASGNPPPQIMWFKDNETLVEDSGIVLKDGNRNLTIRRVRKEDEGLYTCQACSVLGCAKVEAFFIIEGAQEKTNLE
Test: radioactive equilibrium binding, 1 nM KDR-Fc, % of input
Protocol: To prepare ³⁵S-labeled binding proteins for analysis, mRNA was prepared as described above for RNA-protein fusion production but the linker ligation step was omitted. The mRNA was expressed using rabbit reticulocyte lysate translation kit (Ambion) in the presence of ³⁵S-labeled Met at 30° C. for 1 hour. Expressed protein was purified on M2-agarose Flag beads (Sigma) as described above. This procedure produced the encoded protein without the nucleic acid tail. In a direct binding assay, VEGF-R2-Fc fusions in concentrations ranging from 0 to 200 nM were added to a constant concentration of the purified protein (0.2 or 0.5 nM) and incubated at 30° C. for 1 hour in buffer B. The receptor-binder complexes were captured using Protein A magnetic beads for another 10 minutes at room temperature using a Kingfisher™ The beads were washed with six reaction volumes of buffer B. The protein was eluted from the beads with 100 μL of 0.1 M KOH. 50 μL of the reaction mixture and elution were dried onto a LumaPlate-96 (Packard) and the amount of ³⁵S on the plate was measured using a TopCount NXT instrument (Packard). The amount of fibronectin-based scaffold protein bound to the target was estimated as a percent of radioactivity eluted from Protein A magnetic beads compare to radioactivity in the reaction mixture. Nonspecific binding of fibronectin-based scaffold proteins to the beads was determined by measuring binding in the absence of KDR-Fc and represented less than 1-2% of the input. Specific binding was obtained through subtraction of nonspecific binding from total binding. Data was analyzed using the GraphPad Prizm software (GraphPad Software, Inc, San Diego, Calif.), fitted using a one site, non-linear binding equation.

Binder | Binding to 1 nM KDR, % [%]
B1 | 16
B2 | 36
B3 | 23
B4 | 29
B5 | 31
B6 | 32
B7 | 34
B8 | 17
B9 | 16
B10 | 16
B11 | 14
B12 | 18
B13 | 17
B14 | 22
B15 | 17
B16 | 26
B17 | 17
B18 | 16
B19 | 17
B20 | 33
B21 | 24
B22 | 17
